From article PMC2114023 (The Journal of Cell Biology, 1985)

Molecular target: clathrin heavy chain (bovine brain) (bovine, UniProt P49951 1-1675, 3H-labelled by reductive methylation)
Experiment: co-IP

Chain of clathrin heavy chain (bovine brain) (P49951 whole entry): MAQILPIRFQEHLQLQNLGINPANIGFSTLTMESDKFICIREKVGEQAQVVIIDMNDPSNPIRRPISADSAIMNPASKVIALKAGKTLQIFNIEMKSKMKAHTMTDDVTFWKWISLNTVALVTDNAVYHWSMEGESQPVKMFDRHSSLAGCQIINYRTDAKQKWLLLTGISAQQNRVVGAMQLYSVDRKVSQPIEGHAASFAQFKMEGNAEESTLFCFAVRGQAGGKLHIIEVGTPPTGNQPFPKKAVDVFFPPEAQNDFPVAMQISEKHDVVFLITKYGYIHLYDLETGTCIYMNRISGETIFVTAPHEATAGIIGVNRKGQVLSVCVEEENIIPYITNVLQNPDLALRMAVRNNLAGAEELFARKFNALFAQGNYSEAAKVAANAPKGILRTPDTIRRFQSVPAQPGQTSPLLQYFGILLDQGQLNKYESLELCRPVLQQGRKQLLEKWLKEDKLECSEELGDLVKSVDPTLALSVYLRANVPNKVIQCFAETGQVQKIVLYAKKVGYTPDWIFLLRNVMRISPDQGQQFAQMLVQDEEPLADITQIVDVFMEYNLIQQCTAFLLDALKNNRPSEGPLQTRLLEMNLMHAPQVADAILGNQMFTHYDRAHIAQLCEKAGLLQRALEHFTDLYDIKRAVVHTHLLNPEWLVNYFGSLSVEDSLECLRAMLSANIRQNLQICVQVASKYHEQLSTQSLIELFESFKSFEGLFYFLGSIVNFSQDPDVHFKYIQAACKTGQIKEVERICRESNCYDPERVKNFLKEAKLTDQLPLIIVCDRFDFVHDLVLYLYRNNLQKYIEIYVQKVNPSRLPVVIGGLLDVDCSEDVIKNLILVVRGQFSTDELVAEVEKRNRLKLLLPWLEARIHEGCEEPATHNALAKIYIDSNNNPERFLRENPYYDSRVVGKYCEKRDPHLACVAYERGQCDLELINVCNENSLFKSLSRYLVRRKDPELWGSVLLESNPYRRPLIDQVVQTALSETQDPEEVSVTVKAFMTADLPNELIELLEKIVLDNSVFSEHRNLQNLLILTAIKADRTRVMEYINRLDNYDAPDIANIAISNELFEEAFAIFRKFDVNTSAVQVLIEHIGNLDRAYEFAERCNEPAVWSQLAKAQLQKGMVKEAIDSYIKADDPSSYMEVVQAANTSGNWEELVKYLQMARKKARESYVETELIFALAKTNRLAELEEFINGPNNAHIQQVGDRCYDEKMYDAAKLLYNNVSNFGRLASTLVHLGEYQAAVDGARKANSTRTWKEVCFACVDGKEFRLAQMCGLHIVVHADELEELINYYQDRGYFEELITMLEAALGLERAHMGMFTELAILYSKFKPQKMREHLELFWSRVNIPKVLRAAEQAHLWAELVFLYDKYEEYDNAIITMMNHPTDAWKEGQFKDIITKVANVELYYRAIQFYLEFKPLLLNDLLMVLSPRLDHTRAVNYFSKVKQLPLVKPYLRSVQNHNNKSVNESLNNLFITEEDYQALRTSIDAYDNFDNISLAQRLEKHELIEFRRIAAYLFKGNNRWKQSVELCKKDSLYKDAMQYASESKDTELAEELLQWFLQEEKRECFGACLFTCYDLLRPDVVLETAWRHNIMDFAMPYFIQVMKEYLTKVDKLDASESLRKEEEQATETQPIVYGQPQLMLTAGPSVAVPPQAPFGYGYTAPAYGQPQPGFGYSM

B1: clathrin light chain LCa (bovine brain) (natural protein, UniProt P04973 1-243, looked up)
chain: MAELDPFGVPAGGPALGNGVAGEEDPAAAFLAQQESEIAGIENDEAFAILDGGAPGSQPHGEPPGIPDAVDGVTNGDYYQESNGPTDSYAAISQVDRLQSEPESIRKWREEQTERLEALDANSRKQEAEWKEKAIKELDEWYARQDEQLQKTKANNRVADEAFYKQPFADVIGYVTNINHPCYSLEQAAEEAFVNDIEESSPGTEWERVARLCDFNPKSSKQAKDVSRMRSVLISLKQAPLVH
Does B1 bind?
Result: binds
